Where no end group is shown, it is not given here.
What was measured:
[1] = molecular target: T1, Anti-PSMA Fab (SEQ ID NOs: 19, 20); test: phage binding ELISA; biotinylated PSMA Fab on neutravidin plate, clonal phage supernatant, anti-M13 HRP detection;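 note: wells were preincubated with blocking buffer either containing PSMA antigen or without it before crude phage supernatant was added, briefly incubated, then washed prior to detection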
T1 construct: also called 006 PSMA Fab
Procedure: (§1) Clonal phage were harvested as crude supernatants and screened via standard ELISAs. […] Prior to the addition of clonal phage. wells were incubated with blocking buffer and PSMA antigen or blocking buffer alone. Without washing or aspirating, clonal phage supernatants were then added to the wells and incubated for a short time. Wells were then washed followed by detection of bound phage using a horse radish conjugated anti-M13 antibody.

[2] = molecular target: T1, Anti-PSMA Fab (SEQ ID NOs: 19, 20); test: phage binding ELISA; biotinylated PSMA Fab on neutravidin plate pre-incubated with PSMA antigen (competitor), anti-M13 HRP detection;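 note: competition ELISA where clonal phage supernatants were added to wells preincubated with PSMA antigen or with blocking buffer only as control, bound phage read via HRP-coupled anti-M13 antibody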
Procedure: as §1

PSMA Fab [3] = molecular target: T2, PSMA Fab (biotinylated (site not stated)); test: clonal phage ELISA on biotinylated PSMA Fab captured on neutravidin; anti-M13 HRP detection
T2 construct: Biotinylated PSMA Fab captured on neutravidin coated plates in the phage ELISA; also called Anti-PSMA Fab; 006 PSMA Fab

PSMA Fab [4] = molecular target: T2, PSMA Fab; test: clonal phage ELISA on plate-bound PSMA Fab pre-incubated with PSMA antigen as competitor
Procedure: as §1

PSMA Fab [5] = molecular target: T3, PSMA Fab (biotinylated (site not stated)); test: clonal phage ELISA; biotinylated PSMA Fab on neutravidin plate, wells pre-incubated with PSMA antigen as competitor; anti-M13 HRP detection;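 note: crude clonal phage supernatants added to antigen-treated wells without a wash, incubated briefly, then bound phage read out via horse radish–conjugated anti-M13 antibody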
T3 construct: The panning ELISA names only 'biotinylated PSMA Fab' captured on neutravidin coated plates; also called Anti-PSMA Fab; 006 PSMA Fab

PSMA Fab [6] = molecular target: T3, PSMA Fab; test: clonal phage ELISA; biotinylated PSMA Fab on neutravidin plate, blocking buffer alone; anti-M13 HRP detection;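 note: crude clonal phage supernatants added without washing to wells pretreated with blocking buffer with or without PSMA antigen, short incubation, then washed before detecting bound phage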
Procedure: as §1

PSMA Fab [7] = molecular target: T4, PSMA Fab (biotinylated (site not stated)); test: clonal phage supernatant ELISA on biotinylated PSMA Fab captured on neutravidin; anti-M13-HRP detection
T4 construct: Biotinylated PSMA Fab captured on neutravidin coated plates for the clonal phage ELISA; also called Anti-PSMA Fab; 006 PSMA Fab

PSMA Fab [8] = molecular target: T4, PSMA Fab; test: clonal phage supernatant ELISA on PSMA Fab pre-incubated with PSMA antigen as competitor; anti-M13-HRP detection
Procedure: as §1

B1: Phage-1794 (peptide, not shown: large carriers)
peptide: VQIQCRPAWMCLGF
notes: Clonal phage supernatant
[1]
  Anti-PSMA Fab (SEQ ID NOs: 19, 20) signal: 2.44
[2]
  Anti-PSMA Fab signal in the presence of PSMA: 0.127

B2: Phage-3222 (peptide)
peptide: MELKCVPKWMCAGF
modifications: cysteine pairing not given here; also: fused to phage pIII, sequence not given here
notes: not shown: pIII filament protein of the bacteriophage
PSMA Fab [3]
  phage binding ELISA signal: 1.96
PSMA Fab [4]
  phage binding ELISA signal: 0.0684

B3: Phage-3226 (peptide)
peptide: LTVLCEPAWMCVGF
notes: also called Peptide-180 library clone
PSMA Fab [5]
  Phage binding ELISA signal, Anti-PSMA Fab with PSMA antigen: 0.0827
PSMA Fab [6]
  Phage binding ELISA signal, Anti-PSMA Fab: 1.95

B4: Phage-1790 (peptide, not shown: large carriers)
peptide: EPKWCVPRGLCNYD
notes: Clonal phage supernatant; also called Peptide-240
[1]
  Anti-PSMA Fab (SEQ ID NOs: 19, 20) signal: 1.14
[2]
  Anti-PSMA Fab signal in the presence of PSMA: 0.0587

B5: Phage-3102 (peptide)
peptide: DFAYCKPEWMCVGF
notes: Clonal phage of the peptide-180 library; not shown: pIII filament protein of the bacteriophage, fused to the peptide
PSMA Fab [7]
  Phage binding ELISA signal, Anti-PSMA Fab: 2.09
PSMA Fab [8]
  Phage binding ELISA signal, Anti-PSMA Fab with PSMA antigen: 0.0844

B6: Phage-3104 (peptide)
peptide: GEVLCRPAWMCSGF
notes: as for B5
PSMA Fab [7]
  Phage binding ELISA signal, Anti-PSMA Fab: 2.09
PSMA Fab [8]
  Phage binding ELISA signal, Anti-PSMA Fab with PSMA antigen: 0.11

B7: Phage-3218 (peptide)
peptide: DVHLCKPSWMCAGF
modifications: cysteine pairing not given here; also: fused to phage pIII, sequence not given here
notes: as for B2
PSMA Fab [3]
  phage binding ELISA signal: 1.96
PSMA Fab [4]
  phage binding ELISA signal: 0.0706

B8: Phage-3106 (peptide)
peptide: NPMYCKPSWMCEGF
notes: as for B5
PSMA Fab [7]
  Phage binding ELISA signal, Anti-PSMA Fab: 2.08
PSMA Fab [8]
  Phage binding ELISA signal, Anti-PSMA Fab with PSMA antigen: 0.0958

B9: Phage-3111 (peptide)
peptide: IEIMCMPRWMCDGF
notes: as for B5
PSMA Fab [7]
  Phage binding ELISA signal, Anti-PSMA Fab: 2.08
PSMA Fab [8]
  Phage binding ELISA signal, Anti-PSMA Fab with PSMA antigen: 0.101

B10: Phage-1791 (peptide, not shown: large carriers)
peptide: YFVQCRPAWMCEGF
notes: Clonal phage supernatant
[1]
  Anti-PSMA Fab (SEQ ID NOs: 19, 20) signal: 2.51
[2]
  Anti-PSMA Fab signal in the presence of PSMA: 0.339

B11: Phage-3107 (peptide)
peptide: PVAVCKPEWMCIGF
notes: as for B5
PSMA Fab [7]
  Phage binding ELISA signal, Anti-PSMA Fab: 2.08
PSMA Fab [8]
  Phage binding ELISA signal, Anti-PSMA Fab with PSMA antigen: 0.105

B12: Phage-3224 (peptide)
peptide: ITALCKPAWMCDGF
notes: as for B2
PSMA Fab [3]
  phage binding ELISA signal: 1.96
PSMA Fab [4]
  phage binding ELISA signal: 0.109

B13: Phage-3213 (peptide)
peptide: AIAMCVPSWMCTGL
modifications: cysteine pairing not given here; also: fused to phage pIII, sequence not given here
notes: as for B2
PSMA Fab [3]
  phage binding ELISA signal: 1.97
PSMA Fab [4]
  phage binding ELISA signal: 0.0711

B14: Phage-3216 (peptide)
peptide: VEPLCVPSWMCQGI
notes: as for B2
PSMA Fab [3]
  phage binding ELISA signal: 1.97
PSMA Fab [4]
  phage binding ELISA signal: 0.076

B15: Phage-3229 (peptide)
peptide: ITPLCSPAWMCQGL
notes: as for B3
PSMA Fab [5]
  Phage binding ELISA signal, Anti-PSMA Fab with PSMA antigen: 0.055
PSMA Fab [6]
  Phage binding ELISA signal, Anti-PSMA Fab: 1.95

B16: Phage-3113 (peptide)
peptide: NGVVCQPPWMCFGF
notes: as for B5
PSMA Fab [7]
  Phage binding ELISA signal, Anti-PSMA Fab: 2.08
PSMA Fab [8]
  Phage binding ELISA signal, Anti-PSMA Fab with PSMA antigen: 0.0794

B17: Phage-1797 (peptide, not shown: large carriers)
peptide: FTNYCVPSWMCTGF
notes: Clonal phage supernatant
[1]
  Anti-PSMA Fab (SEQ ID NOs: 19, 20) signal: 2.42
[2]
  Anti-PSMA Fab signal in the presence of PSMA: 0.129

B18: Phage-3214 (peptide)
peptide: MAPYCVPSWMCWGF
notes: as for B2
PSMA Fab [3]
  phage binding ELISA signal: 1.97
PSMA Fab [4]
  phage binding ELISA signal: 0.145

B19: Phage-1799 (peptide, not shown: large carriers)
peptide: EEPLCRPVWMCEGF
notes: Clonal phage supernatant
[1]
  Anti-PSMA Fab (SEQ ID NOs: 19, 20) signal: 2.41
[2]
  Anti-PSMA Fab signal in the presence of PSMA: 0.117

B20: Phage-1801 (peptide, not shown: large carriers)
peptide: EDILCKPKWMCEGF
notes: Clonal phage supernatant
[1]
  Anti-PSMA Fab (SEQ ID NOs: 19, 20) signal: 2.4
[2]
  Anti-PSMA Fab signal in the presence of PSMA: 0.109

B21: Phage-1796 (peptide, not shown: large carriers)
peptide: TAHHCKPAWMCTGF
notes: Clonal phage supernatant
[1]
  Anti-PSMA Fab (SEQ ID NOs: 19, 20) signal: 2.42
[2]
  Anti-PSMA Fab signal in the presence of PSMA: 0.103

B22: Phage-3109 (peptide)
peptide: VEAMCKPWWMCEGL
notes: as for B5
PSMA Fab [7]
  Phage binding ELISA signal, Anti-PSMA Fab: 2.08
PSMA Fab [8]
  Phage binding ELISA signal, Anti-PSMA Fab with PSMA antigen: 0.0719

B23: Phage-3112 (peptide)
peptide: EPQMCIPRWMCDGF
notes: as for B5
PSMA Fab [7]
  Phage binding ELISA signal, Anti-PSMA Fab: 2.08
PSMA Fab [8]
  Phage binding ELISA signal, Anti-PSMA Fab with PSMA antigen: 0.135

B24: Phage-1798 (peptide, not shown: large carriers)
peptide: VEKVCKPVWMCVGF
notes: Clonal phage supernatant
[1]
  Anti-PSMA Fab (SEQ ID NOs: 19, 20) signal: 2.41
[2]
  Anti-PSMA Fab signal in the presence of PSMA: 0.156

B25: Phage-3114 (peptide)
peptide: VPRYCVPQWMCAAF
notes: as for B5
PSMA Fab [7]
  Phage binding ELISA signal, Anti-PSMA Fab: 2.08
PSMA Fab [8]
  Phage binding ELISA signal, Anti-PSMA Fab with PSMA antigen: 0.0864

B26: Phage-3219 (peptide)
peptide: DQVMCKPIWMCEGF
notes: as for B2
PSMA Fab [3]
  phage binding ELISA signal: 1.96
PSMA Fab [4]
  phage binding ELISA signal: 0.0928

B27: Phage-3228 (peptide)
peptide: VGHVCLPPWMCTGF
notes: as for B3
PSMA Fab [5]
  Phage binding ELISA signal, Anti-PSMA Fab with PSMA antigen: 0.0697
PSMA Fab [6]
  Phage binding ELISA signal, Anti-PSMA Fab: 1.95

B28: Phage-1793 (peptide, not shown: large carriers)
peptide: AVKACIPEWMCIGF
notes: Clonal phage supernatant
[1]
  Anti-PSMA Fab (SEQ ID NOs: 19, 20) signal: 2.44
[2]
  Anti-PSMA Fab signal in the presence of PSMA: 0.106

B29: Phage-3103 (peptide)
peptide: GEILCRPAWMCYGF
notes: as for B5
PSMA Fab [7]
  Phage binding ELISA signal, Anti-PSMA Fab: 2.09
PSMA Fab [8]
  Phage binding ELISA signal, Anti-PSMA Fab with PSMA antigen: 0.119

B30: Phage-3230 (peptide)
peptide: LGIYCVPEWMCQGF
notes: as for B3
PSMA Fab [5]
  Phage binding ELISA signal, Anti-PSMA Fab with PSMA antigen: 0.0818
PSMA Fab [6]
  Phage binding ELISA signal, Anti-PSMA Fab: 1.95

B31: Phage-1800 (peptide, not shown: large carriers)
peptide: ESRLCVPAWMCAGF
notes: Clonal phage supernatant; also called Peptide-270
[1]
  Anti-PSMA Fab (SEQ ID NOs: 19, 20) signal: 2.41
[2]
  Anti-PSMA Fab signal in the presence of PSMA: 0.103

B32: Phage-3217 (peptide)
peptide: IELFCKPAWMCDGF
notes: as for B2
PSMA Fab [3]
  phage binding ELISA signal: 1.97
PSMA Fab [4]
  phage binding ELISA signal: 0.111

B33: Phage-1792 (peptide, not shown: large carriers)
peptide: IVPLCKPAWMCKLF
notes: Clonal phage supernatant
[1]
  Anti-PSMA Fab (SEQ ID NOs: 19, 20) signal: 2.48
[2]
  Anti-PSMA Fab signal in the presence of PSMA: 0.221

B34: Phage-3227 (peptide)
peptide: PIVKCSPAWMCSGF
notes: as for B3
PSMA Fab [5]
  Phage binding ELISA signal, Anti-PSMA Fab with PSMA antigen: 0.0757
PSMA Fab [6]
  Phage binding ELISA signal, Anti-PSMA Fab: 1.95

B35: Phage-3223 (peptide)
peptide: PQWMCKPEWMCNGF
notes: as for B2
PSMA Fab [3]
  phage binding ELISA signal: 1.96
PSMA Fab [4]
  phage binding ELISA signal: 0.0807

B36: Phage-3220 (peptide)
peptide: IPRACIPAWMCQGF
notes: as for B2
PSMA Fab [3]
  phage binding ELISA signal: 1.96
PSMA Fab [4]
  phage binding ELISA signal: 0.101

B37: Phage-3215 (peptide)
peptide: LDLRCQPPWMCMGF
notes: as for B2
PSMA Fab [3]
  phage binding ELISA signal: 1.97
PSMA Fab [4]
  phage binding ELISA signal: 0.0778

B38: Phage-1802 (peptide, not shown: large carriers)
peptide: LHVYCVPEWMCAGF
notes: Clonal phage supernatant; also called Peptide-272
[1]
  Anti-PSMA Fab (SEQ ID NOs: 19, 20) signal: 2.38
[2]
  Anti-PSMA Fab signal in the presence of PSMA: 0.109

B39: Phage-3221 (peptide)
peptide: LQILCKPQWMCEGL
notes: as for B2
PSMA Fab [3]
  phage binding ELISA signal: 1.96
PSMA Fab [4]
  phage binding ELISA signal: 0.0882

B40: Phage-3108 (peptide)
peptide: SEVVCVPTWMCTGF
notes: as for B5
PSMA Fab [7]
  Phage binding ELISA signal, Anti-PSMA Fab: 2.08
PSMA Fab [8]
  Phage binding ELISA signal, Anti-PSMA Fab with PSMA antigen: 0.0805

B41: Phage-3110 (peptide)
peptide: VVQLCRPSWMCQGF
notes: as for B5
PSMA Fab [7]
  Phage binding ELISA signal, Anti-PSMA Fab: 2.08
PSMA Fab [8]
  Phage binding ELISA signal, Anti-PSMA Fab with PSMA antigen: 0.281

B42: Phage-3225 (peptide)
peptide: GEVLCRPIWMCNGF
notes: as for B2
PSMA Fab [3]
  phage binding ELISA signal: 1.95
PSMA Fab [4]
  phage binding ELISA signal: 0.123

B43: Phage-1795 (peptide, not shown: large carriers)
peptide: AEVKCIPQWMCQGF
notes: Clonal phage supernatant
[1]
  Anti-PSMA Fab (SEQ ID NOs: 19, 20) signal: 2.43
[2]
  Anti-PSMA Fab signal in the presence of PSMA: 0.0852

B44: Phage-3105 (peptide)
peptide: QEIRCEPIWMCWGF
notes: as for B5
PSMA Fab [7]
  Phage binding ELISA signal, Anti-PSMA Fab: 2.09
PSMA Fab [8]
  Phage binding ELISA signal, Anti-PSMA Fab with PSMA antigen: 0.147
